Measured values: patent US20230242658A1 (published 2023)
Positions count from the first letter of the chain named.

B1: PR007137 (bispecific antibody)
light: DIQMTQSPSTLSASVGDRVTVTCRASQSIYIWLAWYQQKPGKAPNLLIYKASSLETGVPSRFSGSGSGTEFTLTISSLQPDDFATYYCQQYYGSSRTFGQGTKVEIKRTVAAPSVFIFPPSDEQLKSGTASVVCLLNNFYPREAKVQWKVDNALQSGNSQESVTEQDSKDSTYSLSSTLTLSKADYEKHKVYACEVTHQGLSSPVTKSFNRGEC
heavy: EVQLVESGGGLVQPGGSLRLSCAASGFTFSSYWMSWVRQAPGKGLEWVANIKQEGSEKYYVDSVKGRFTISRDNAKNSLYLQMNSLRAEDTAVYYCARDRAVAGAFDIWGQGTMVTVSSASTKGPSVFPLAPSSKSTSGGTAALGCLVKDYFPEPVTVSWNSGALTSGVHTFPAVLQSSGLYSLSSVVTVPSSSLGTQTYICNVNHKPSNTKVDKKVEPKSCDKTHTCPPCPAPEAAGAPSVFLFPPKPKDTLMISRTPEVTCVVVDVSHEDPEVKFNWYVDGVEVHNAKTKPREEQYNSTYRVVSVLTVLHQDWLNGKEYKCKVSNKALPAPIEKTISKAKGQPREPQVYTLPPSREEMTKNQVSLTCLVKGFYPSDIAVEWESNGQPENNYKTTPPVLDSDGSFFLYSKLTVDKSRWQQGNVFSCSVMHEALHNHYTQKSLSLSPGGGSGGSEVQLVESGGGVVQPGRSLRLSCAASGFTFSDYYMSWFRQAPGKGLEWVSYISSSGTTIDYADSVKGRFTISRDNAKNSLYLQMNSLRAEDTAVYYCAREREEVAGTLDFDYWGQGTPVTVSS
B2: PR007130 (bispecific antibody)
light: B1 light
heavy: EVQLVESGGGLVQPGGSLRLSCAASGFTFSSYWMSWVRQAPGKGLEWVANIKQEGSEKYYVDSVKGRFTISRDNAKNSLYLQMNSLRAEDTAVYYCARDRAVAGAFDIWGQGTMVTVSSASTKGPSVFPLAPSSKSTSGGTAALGCLVKDYFPEPVTVSWNSGALTSGVHTFPAVLQSSGLYSLSSVVTVPSSSLGTQTYICNVNHKPSNTKVDKKVEPKSCDKTHTCPPCPAPEAAGAPSVFLFPPKPKDTLMISRTPEVTCVVVDVSHEDPEVKFNWYVDGVEVHNAKTKPREEQYNSTYRVVSVLTVLHQDWLNGKEYKCKVSNKALPAPIEKTISKAKGQPREPQVYTLPPSREEMTKNQVSLTCLVKGFYPSDIAVEWESNGQPENNYKTTPPVLDSDGSFFLYSKLTVDKSRWQQGNVFSCSVMHEALHNHYTQKSLSLSPGGGSGGSEVQLLESGGGLVQPGGSLRLSCAASGFTFSNYAMSWFRQPPETGLKWVSSIDASGGDTYYADSVKGRFTISRDNSKNTLYLQMNSLRAEDTAVYYCAKEGSHGTDDSHYDVDVWGQGTTVTVSS
B3: PR007135 (bispecific antibody)
light: B1 light
heavy: B1 heavy with V465L, Q467K, R470G, S507G, T510S, T511I, A551S, E556A, P571L
B4: PR007133 (bispecific antibody)
light: B1 light
heavy: EVQLVESGGGLVQPGGSLRLSCAASGFTFSSYWMSWVRQAPGKGLEWVANIKQEGSEKYYVDSVKGRFTISRDNAKNSLYLQMNSLRAEDTAVYYCARDRAVAGAFDIWGQGTMVTVSSASTKGPSVFPLAPSSKSTSGGTAALGCLVKDYFPEPVTVSWNSGALTSGVHTFPAVLQSSGLYSLSSVVTVPSSSLGTQTYICNVNHKPSNTKVDKKVEPKSCDKTHTCPPCPAPEAAGAPSVFLFPPKPKDTLMISRTPEVTCVVVDVSHEDPEVKFNWYVDGVEVHNAKTKPREEQYNSTYRVVSVLTVLHQDWLNGKEYKCKVSNKALPAPIEKTISKAKGQPREPQVYTLPPSREEMTKNQVSLTCLVKGFYPSDIAVEWESNGQPENNYKTTPPVLDSDGSFFLYSKLTVDKSRWQQGNVFSCSVMHEALHNHYTQKSLSLSPGGGSGGSEVQLEESGGGLVKPGGSLRLSCAASGFTFSDYYMSWFRQAPGKGLEWVSYISSSGSITDYADAVKGRFNISRDNAKNSLYLQMNSLRAEDTAVYYCAREREAVAGTLDFDNWGQGTLVTVSS
B5: PR007132 (bispecific antibody)
light: B1 light
heavy: EVQLVESGGGLVQPGGSLRLSCAASGFTFSSYWMSWVRQAPGKGLEWVANIKQEGSEKYYVDSVKGRFTISRDNAKNSLYLQMNSLRAEDTAVYYCARDRAVAGAFDIWGQGTMVTVSSASTKGPSVFPLAPSSKSTSGGTAALGCLVKDYFPEPVTVSWNSGALTSGVHTFPAVLQSSGLYSLSSVVTVPSSSLGTQTYICNVNHKPSNTKVDKKVEPKSCDKTHTCPPCPAPEAAGAPSVFLFPPKPKDTLMISRTPEVTCVVVDVSHEDPEVKFNWYVDGVEVHNAKTKPREEQYNSTYRVVSVLTVLHQDWLNGKEYKCKVSNKALPAPIEKTISKAKGQPREPQVYTLPPSREEMTKNQVSLTCLVKGFYPSDIAVEWESNGQPENNYKTTPPVLDSDGSFFLYSKLTVDKSRWQQGNVFSCSVMHEALHNHYTQKSLSLSPGGGSGGSEVQLVESGGGLVKPGGSLRLSCAASGFTFSDYYMSWIRQAPGKGLEWVSYISSSGSTIYYADSVKGRFTISRDNAKNSLYLQMNSLRAEDTAVYYCARVKPVAGTWDWFDPWGQGTPVTVSS
B6: PR007136 (bispecific antibody)
light: B1 light
heavy: B4 heavy with E459V, I511T, T512Q, A517S, N523T, A556P, L571P
B7: PR007138 (bispecific antibody)
light: B1 light
heavy: EVQLVESGGGLVQPGGSLRLSCAASGFTFSSYWMSWVRQAPGKGLEWVANIKQEGSEKYYVDSVKGRFTISRDNAKNSLYLQMNSLRAEDTAVYYCARDRAVAGAFDIWGQGTMVTVSSASTKGPSVFPLAPSSKSTSGGTAALGCLVKDYFPEPVTVSWNSGALTSGVHTFPAVLQSSGLYSLSSVVTVPSSSLGTQTYICNVNHKPSNTKVDKKVEPKSCDKTHTCPPCPAPEAAGAPSVFLFPPKPKDTLMISRTPEVTCVVVDVSHEDPEVKFNWYVDGVEVHNAKTKPREEQYNSTYRVVSVLTVLHQDWLNGKEYKCKVSNKALPAPIEKTISKAKGQPREPQVYTLPPSREEMTKNQVSLTCLVKGFYPSDIAVEWESNGQPENNYKTTPPVLDSDGSFFLYSKLTVDKSRWQQGNVFSCSVMHEALHNHYTQKSLSLSPGGGSGGSEVQLVESGGGLVKPGGSLRLSCVTSGFTFSDYYMNWIRQAPGKGQEWVSYISGNGSTIYYADSVKGRFTISRDNAKNSLYLQMNSLRAEDTAVYYCARVRPGGSGNYWDWFDPWGQGTPVTVSS
B8: PR007142 (bispecific antibody)
light: B1 light
heavy: B7 heavy with V477A, T478A, N489S, Q499L, G507N, P573M
B9: PR007149 (bispecific antibody)
light: B1 light
heavy: B7 heavy with V477T, I491V, Q499L, G507N
B10: PR007139 (bispecific antibody)
light: B1 light
heavy: B4 heavy with E459V, F491I, I511T, T512I, A517S, N523T, A556E, F563Y

These binders were tested against T1, human 4-1BB on CHO-K1 cells (human, UniProt Q07011 24-255) (assay: FACS).
Target sequence in this assay (Q07011 24-255): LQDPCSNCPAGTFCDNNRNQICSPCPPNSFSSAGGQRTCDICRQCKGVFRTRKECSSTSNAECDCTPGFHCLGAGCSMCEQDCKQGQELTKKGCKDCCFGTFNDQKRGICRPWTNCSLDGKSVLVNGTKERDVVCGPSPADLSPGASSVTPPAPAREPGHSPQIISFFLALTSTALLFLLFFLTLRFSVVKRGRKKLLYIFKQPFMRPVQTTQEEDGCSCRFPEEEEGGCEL
In the case of B1, the EC50 is reported as 4.65 nM.
Work on B2 yielded an EC50 of 2.06 nM.
With B3 the EC50 was 12.9 nM.
With B4 the EC50 was 5.06 nM.
B5 showed an EC50 of 5.58 nM.
B6 gave an EC50 of 8.74 nM.

What follows are binders tested against human PD-L1 on CHO-K1 cells (human, UniProt Q9NZQ7 19-290) (assay: FACS; MDA-MB-231 cells).
Chain of human PD-L1 on CHO-K1 cells (Q9NZQ7 19-290): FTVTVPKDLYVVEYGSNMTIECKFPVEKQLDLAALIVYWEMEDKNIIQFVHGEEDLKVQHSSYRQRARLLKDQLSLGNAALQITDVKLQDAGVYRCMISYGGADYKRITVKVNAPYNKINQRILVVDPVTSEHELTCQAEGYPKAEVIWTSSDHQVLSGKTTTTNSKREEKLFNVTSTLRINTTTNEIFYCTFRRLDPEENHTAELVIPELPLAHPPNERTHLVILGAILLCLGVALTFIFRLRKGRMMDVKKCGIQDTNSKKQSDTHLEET
Binder B1 has an EC50 of 0.203 nM.
With B2 the EC50 was 0.161 nM.
Binder B7 has an EC50 of 0.202 nM.
Work on B8 yielded an EC50 of 0.263 nM.
Binder B3 has an EC50 of 0.299 nM.
In the case of B9, the EC50 is reported as 0.206 nM.
Binder B10 has an EC50 of 0.257 nM.
For B4, the EC50 was 0.216 nM.
Work on B5 yielded an EC50 of 0.22 nM.
B6 gave an EC50 of 0.253 nM.

Target: T1, human 4-1BB on CHO-K1 cells
Experiment: FACS
Remark: another data set of the same source
With B7 the EC50 was 3.15 nM.
Work on B8 yielded an EC50 of 23.8 nM.
Binder B9 has an EC50 of 2.36 nM.
B10 showed an EC50 of 6.84 nM.
